Measurements taken from article PMC10687025, “Endosomal Arl4A attenuates EGFR degradation by binding to the ESCRT-II component VPS36” (Nature Communications, 2023).

B1: untagged Arl4A T51N (pSG5) [not stated] / VPS36-WT-Myc [not stated] (parent complex)
chain 1: MGNGLSDQTSILSNLPSFQSFHIVILGLDCAGKTTVLYRLQFNEFVNTVPNKGFNTEKIKVTLGNSKTVTFHFWDVGGQEKLRPLWKSYTRCTDGIVFVVDSVDVERMEEAKTELHKITRISENQGVPVLIVANKQDLRNSLSLSEIEKLLAMGELSSSTPWHLQPTCAIIGDGLKEGLEKLHDMIIKRRKMLRQQKKKR
chain 2: MDRFVWTSGLLEINETLVIQQRGVRIYDGEEKIKFDAGTLLLSTHRLIWRDQKNHECCMAILLSQIVFIEEQAAGIGKSAKIVVHLHPAPPNKEPGPFQSSKNSYIKLSFKEHGQIEFYRRLSEEMTQRRWENMPVSQSLQTNRGPQPGRIRAVGIVGIERKLEEKRKETDKNISEAFEDLSKLMIKAKEMVELSKSIANKIKDKQGDITEDETIRFKSYLLSMGIANPVTRETYGSGTQYHMQLAKQLAGILQVPLEERGGIMSLTEVYCLVNRARGMELLSPEDLVNACKMLEALKLPLRLRVFDSGVMVIELQSHKEEEMVASALETVSEKGSLTSEEFAKLVGMSVLLAKERLLLAEKMGHLCRDDSVEGLRFYPNLFMTQS
B2: His-tagged Arl4A T51N [not stated] / GST-VPS36 (201–386) [not stated] (parent complex)
chain 1: B1 chain 1
chain 2: KIKDKQGDITEDETIRFKSYLLSMGIANPVTRETYGSGTQYHMQLAKQLAGILQVPLEERGGIMSLTEVYCLVNRARGMELLSPEDLVNACKMLEALKLPLRLRVFDSGVMVIELQSHKEEEMVASALETVSEKGSLTSEEFAKLVGMSVLLAKERLLLAEKMGHLCRDDSVEGLRFYPNLFMTQS

Variants of: B1
Experiment: co-immunoprecipitation (Myc-Trap) with densitometric quantification; HeLa cell lysates; parent: 1; read off a plot

**Q.** chain 2 L352A, chain 2 K354A, chain 2 E355A, chain 2 R356A was tested. Which ratio to parent did it give?
**A.** ~0.54

Variants of: B2
Experiment: GST pull-down with densitometric quantification; parent: 1; read off a plot

**Q.** chain 2 L137A, chain 2 T138A, chain 2 S139A, chain 2 E140A, chain 2 E141A was tested. Which ratio to parent did it give?
**A.** ~0.22

**Q.** How did the ratio to parent turn out when chain 2 F142A, chain 2 K144A, chain 2 L145A, chain 2 V146A was run?
**A.** ~0.31

**Q.** Which ratio to parent does the source give for chain 2 L152A, chain 2 K154A, chain 2 E155A, chain 2 R156A here?
**A.** ~0.09
